Residue numbers refer to the chain shown, from its start.
B1: CDCP1-004 Fab (Fab, V domains shown)
VH: EVQLVESGGGLVQPGGSLRLSCAASGFNISYYYMHWVRQAPGKGLEWVASIYSSYGYTSYADSVKGRFTISADTSKNTAYLQMNSLRAEDTAVYYCARVYYGFDYWGQGTLVTVSS
VL: DIQMTQSPSSLSASVGDRVTITCRASQSVSSAVAWYQQKPGKAPKLLIYSASSLYSGVPSRFSGSRSGTDFTLTISSLQPEDFATYYCQQSYYVYPITFGQGTKVEIK
notes: Tested as Fab
B2: CDCP1-008 Fab (Fab, V domains shown)
VH: B1 VH with Y31S, S53P, S54Y, Y55S, S59Y, V99A, G102A, F103M
VL: B1 VL
notes: Tested as Fab
B3: CDCP1-002 Fab (Fab, V domains shown)
VH: B1 VH with I29L, M34I, Y55S, G56S, V99A
VL: B1 VL with V94Y
notes: Tested as Fab from a synthetic Fab-phage library; Used 89Zr-labeled for PET and 125I-labeled for Bmax; also called CDCP1-4A06; CDCP1 Fab
B4: CDCP1-003 Fab (Fab, V domains shown)
VH: B1 VH with Y33S, Y52S, S53P, S54Y, Y55S, V99G, G102A, F103L
VL: B1 VL with S91Y, V94F, I97F
notes: Tested as Fab
B5: CDCP1-005 Fab (Fab, V domains shown)
VH: B1 VH with M34I, S53P, S54Y, Y57S, S59Y, V99A
VL: B1 VL with Y93W, V94S, Y95F
notes: Tested as Fab
B6: CDCP1-007 Fab (Fab, V domains shown)
VH: B1 VH with S30Y, Y31S, M34I, S53P, S54Y, V99A, F103M
VL: B1 VL with Y93F, V94Y, Y95W
notes: Tested as Fab
B7: CDCP1-006 Fab (Fab, V domains shown)
VH: EVQLVESGGGLVQPGGSLRLSCAASGFNLYYSYMHWVRQAPGKGLEWVAYISPYSGSTYYADSVKGRFTISADTSKNTAYLQMNSLRAEDTAVYYCARYSYSALDYWGQGTLVTVSS
VL: DIQMTQSPSSLSASVGDRVTITCRASQSVSSAVAWYQQKPGKAPKLLIYSASSLYSGVPSRFSGSRSGTDFTLTISSLQPEDFATYYCQQSSWHYHLFTFGQGTKVEIK
notes: Tested as Fab

What was measured:
[1] = molecular target: CD3 on the surface of T-cells (Jurkat reporter cells) (UniProt P07766); test: cell-based or functional assay
[2] = molecular target: CDCP1 on human cells (MCF10A KRASG12V, HPAC) (human) (UniProt Q9H5V8); test: cell-based or functional assay
[3] = molecular target: T1, CDCP1 extracellular domain displayed on the surface of HEK293 (T-Rex-293) cells (human, UniProt Q9H5V8 30-667); test: flow cytometry, Fab on CDCP1 Cell
T1 construct: extracellular domain; also called CDCP1 Cell; not shown: fluorescent protein expression reporter and generic single-pass transmembrane domain
T1 sequence (looked up): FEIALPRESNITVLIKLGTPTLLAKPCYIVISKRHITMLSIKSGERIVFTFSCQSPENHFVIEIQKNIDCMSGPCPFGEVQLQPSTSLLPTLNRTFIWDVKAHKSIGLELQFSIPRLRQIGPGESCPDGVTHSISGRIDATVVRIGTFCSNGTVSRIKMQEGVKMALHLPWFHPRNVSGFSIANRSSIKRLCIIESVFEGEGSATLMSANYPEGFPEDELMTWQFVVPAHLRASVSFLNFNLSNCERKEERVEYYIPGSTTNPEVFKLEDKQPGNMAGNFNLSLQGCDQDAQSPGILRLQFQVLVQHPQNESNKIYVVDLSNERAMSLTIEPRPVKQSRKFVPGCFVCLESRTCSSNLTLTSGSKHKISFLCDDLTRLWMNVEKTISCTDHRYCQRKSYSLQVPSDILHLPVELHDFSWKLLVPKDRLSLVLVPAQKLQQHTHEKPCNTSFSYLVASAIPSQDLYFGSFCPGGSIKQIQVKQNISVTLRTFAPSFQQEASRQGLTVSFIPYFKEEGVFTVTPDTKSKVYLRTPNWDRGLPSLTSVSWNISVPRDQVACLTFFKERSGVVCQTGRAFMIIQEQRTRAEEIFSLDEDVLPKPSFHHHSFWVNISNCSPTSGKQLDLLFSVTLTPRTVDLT

Cynomolgus monkey CDCP1 = molecular target: T2, Cynomolgus monkey CDCP1 (Cynomolgus monkey, UniProt A0A2K5VLA8 30-667); test: ELISA; column head 'ELISA~EC50 Kd (nM)'
T2 construct: construct not described
T2 sequence: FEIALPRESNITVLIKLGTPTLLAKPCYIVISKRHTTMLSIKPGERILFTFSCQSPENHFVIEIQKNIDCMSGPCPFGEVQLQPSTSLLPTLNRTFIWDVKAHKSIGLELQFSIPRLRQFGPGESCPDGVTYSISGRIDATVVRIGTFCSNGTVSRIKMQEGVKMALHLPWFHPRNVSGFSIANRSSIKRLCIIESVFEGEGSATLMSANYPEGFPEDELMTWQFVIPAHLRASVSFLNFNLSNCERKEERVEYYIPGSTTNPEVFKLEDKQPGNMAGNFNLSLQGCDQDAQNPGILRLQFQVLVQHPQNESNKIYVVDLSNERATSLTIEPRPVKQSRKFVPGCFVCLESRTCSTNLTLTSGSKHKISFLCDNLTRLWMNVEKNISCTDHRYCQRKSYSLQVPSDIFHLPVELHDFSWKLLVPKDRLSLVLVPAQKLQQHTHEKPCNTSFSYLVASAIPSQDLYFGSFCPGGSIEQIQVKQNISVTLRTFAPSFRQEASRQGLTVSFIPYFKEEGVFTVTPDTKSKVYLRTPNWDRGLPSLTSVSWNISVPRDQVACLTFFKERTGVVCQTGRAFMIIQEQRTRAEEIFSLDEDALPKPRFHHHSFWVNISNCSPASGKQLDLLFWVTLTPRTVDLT

Human CDCP1 = molecular target: T3, Human CDCP1 (human, UniProt Q9H5V8 30-667, limits assumed); test: ELISA; column head 'ELISA~EC50 Kd (nM)'
T3 construct: also called CUB domain-containing protein 1; SIMA135
T3 sequence (looked up): T1 sequence (looked up)

CDCP1 aas 30-367 = molecular target: T4, CDCP1 aas 30-367 (human, UniProt Q9H5V8 30-367); test: ELISA, CDCP1 specificity on fragments
T4 construct: range 30-367
T4 sequence (looked up): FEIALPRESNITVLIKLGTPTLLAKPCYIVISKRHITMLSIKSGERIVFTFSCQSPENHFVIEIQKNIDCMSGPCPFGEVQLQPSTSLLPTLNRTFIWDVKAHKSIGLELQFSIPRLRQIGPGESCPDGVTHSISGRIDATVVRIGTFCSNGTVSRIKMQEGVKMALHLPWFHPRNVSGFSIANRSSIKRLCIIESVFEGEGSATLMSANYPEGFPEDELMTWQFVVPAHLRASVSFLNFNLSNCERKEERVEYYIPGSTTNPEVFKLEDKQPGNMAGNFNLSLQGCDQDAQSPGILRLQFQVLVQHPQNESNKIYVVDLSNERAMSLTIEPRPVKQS

Sequence of CD3 on the surface of T-cells (Jurkat reporter cells) (P07766 23-207): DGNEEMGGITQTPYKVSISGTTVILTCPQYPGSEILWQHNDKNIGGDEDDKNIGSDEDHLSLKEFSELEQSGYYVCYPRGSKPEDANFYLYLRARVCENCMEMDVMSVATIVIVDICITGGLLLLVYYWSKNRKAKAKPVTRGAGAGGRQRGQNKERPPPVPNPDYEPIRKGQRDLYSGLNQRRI

Molecule	T-cell activation (NFAT-dependent GFP reporter, flow cytometry) in co-culture with HPAC cells at 1 nM BiTE [1]	T-cell activation (NFAT-dependent GFP reporter, flow cytometry) in co-culture with HPAC cells at 1 nM BiTE [2]	Flow Cytometry (MFI) [3]	EC50 (Cynomolgus monkey CDCP1)	EC50 (Human CDCP1)	binding result (CDCP1 aas 30-367)
CDCP1 BiTE (CDCP1-002 Fab genetically fused to OKT3 anti-CD3 scFv) (bispecific antibody)	75%	75%				
B1			770 MFI	34.9 nM	2.37 nM	
B2			673 MFI	97.1 nM	76.2 nM	
B3			1160 MFI	19.6 nM	0.651 nM	
B4			180 MFI	666 nM	65.3 nM	
B5			870 MFI			
B6			2.33 MFI	22.4 nM	18 nM	
B7			52.3 MFI	3.34 nM	29.6 nM	no binding

From patent publication US20210179729A1 (University of California, published 2021)
